Experimental findings from patent publication US20100239587A1 (published 2010) are described below.

Bridge positions count the residues as written; N and C are the ends. Ends that are not written are not given here.

Experiment [1] concerns the target TNF receptor (immobilized control). Briefly: SPR, receptor immobilized, peptide injected. Background: SPR reads the build-up and loss of mass on a sensor chip optically.
Experiment [2] addresses T1, ErbB1 extracellular domain (recombinant, soluble) (UniProt P00533 25-645, limits assumed).
T1 construct: extracellular domain; also called erbB1 ectodomain; EGFr
In words: SPR; 10 µM peptide pre-injected over immobilized ErbB1; competitor: ErbB3 ectodomain (300 nM) with HRGβ1 (5 µM).

Experiment [3] addresses T2, ErbB3 extracellular domain (recombinant, soluble) (UniProt P21860 20-643, limits assumed).
T2 construct: extracellular domain; Used both immobilized and as the injected analyte (300 nM, alone or with 5 µM HRGβ1); also called erbB3 ectodomain
In words: SPR; 10 µM peptide pre-injected over immobilized ErbB3; competitor: ErbB3 ectodomain (300 nM) with HRGβ1 (5 µM).

For experiment [4], the target named is T3, ErbB2 extracellular domain (recombinant) (UniProt P04626 23-652, limits assumed).
T3 construct: extracellular domain; also called erbB2 ectodomain; full-size erbB2 ectodomain
In words: SPR; 10 µM peptide pre-injected over immobilized ErbB2; competitor: ErbB3 ectodomain (300 nM) with HRGβ1 (5 µM).

T2 sequence (P21860 20-643 limits assumed): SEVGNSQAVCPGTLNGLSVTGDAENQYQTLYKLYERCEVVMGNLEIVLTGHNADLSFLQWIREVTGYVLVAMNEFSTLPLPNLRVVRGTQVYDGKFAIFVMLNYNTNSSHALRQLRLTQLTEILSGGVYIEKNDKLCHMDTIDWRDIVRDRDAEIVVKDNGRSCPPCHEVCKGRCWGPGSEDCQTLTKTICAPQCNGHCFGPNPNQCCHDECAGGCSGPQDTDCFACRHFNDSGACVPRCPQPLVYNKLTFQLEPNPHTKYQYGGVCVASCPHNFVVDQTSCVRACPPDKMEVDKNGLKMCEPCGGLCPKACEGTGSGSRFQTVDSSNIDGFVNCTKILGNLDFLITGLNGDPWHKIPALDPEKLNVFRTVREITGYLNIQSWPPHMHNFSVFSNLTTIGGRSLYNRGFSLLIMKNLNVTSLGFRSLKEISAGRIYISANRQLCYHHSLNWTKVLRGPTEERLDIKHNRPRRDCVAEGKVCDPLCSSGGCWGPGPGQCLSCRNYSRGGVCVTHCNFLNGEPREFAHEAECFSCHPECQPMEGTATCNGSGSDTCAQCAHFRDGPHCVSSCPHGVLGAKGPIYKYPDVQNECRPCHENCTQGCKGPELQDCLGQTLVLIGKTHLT

As a reminder, the Kd is the free concentration of one partner at which half of the binding sites on the other are occupied at equilibrium, for simple one-to-one binding. A higher Kd goes with a looser complex. In the case of YCLVWKYADAGCY (disulfide 2-12 (inferred), Derived from the S22 repeat of erbB1) [B1-S22-ALG], the Kd in experiment [1] is greater than 1000 µM.

Take YCPIWKFPDEECY (disulfide 2-12 (inferred), Derived from the S22 repeat of erbB2) [B2-S22-APE]: in experiment [1], the Kd is greater than 1000 µM.

B1: B2-S22-AFA (peptide)
peptide: YCFPDEEGACY
modifications: disulfide 2-10 (inferred)
notes: Cyclic peptide that mimics part of the S22 loop of erbB2
As to B1, in experiment [1], the Kd was greater than 1000 µM. With YCFIFKYADPDCY (disulfide 2-12 (inferred), Derived from the S22 repeat of erbB4) [B4-S22-AFD], the Kd in experiment [1] was greater than 1000 µM.

B2: CD4-G (peptide)
peptide: FCYIGEVEDQCY
modifications: disulfide 2-11 (inferred)
notes: Negative control peptide; also called CD4 receptor-derived cyclic peptide; control peptide
Consider B2, for which, in experiment [1], the Kd was greater than 1000 µM. Moreover, the entries for the “Percent Inhibition” value in experiment [2], in experiment [3] and in experiment [4] were 2.4%, 3.1% and -1.2%, respectively.

In turn, YCPIYKYPDVQCY (disulfide 2-12 (inferred), Derived from the S22 repeat of erbB3) [B3-S22-APQ] showed a Kd in experiment [1] greater than 1000 µM.
